Series [1] is described as follows: Determination of radiotracer lipophilicity (logD, phosphate buffer/1-octanol). The series is classed as physicochemical. The note with it: phosphate buffer (0.05 M, pH 7.4) / 1-octanol, six independent experiments. On the procedure:
Determination of radiotracer lipophilicity. The heterobivalent ligands (22–26) as well as the monomeric reference compounds (27 and 28) were radiolabeled with ^68Ga as described before and 2 µL of the product solution (~65 pmol of the respective radioligand) were added to a mixture of phosphate buffer (0.05 M, pH 7.4, 800 µL) and 1-octanol (800 µL) and incubated for 5 min at ambient temperature under vigorous shaking. Both phases were separated by centrifugation and 100 µL of each phase were measured for radioactivity in a gamma-counter. […] (cpm = counts per minute), cpmw = activity in the aqueous phase [cpm]. These experiments were performed six times independently.

Series [2] has as its system T-47D cells. As to the kind of experiment: In vitro cell uptake (internalization) study in T-47D cells. The series is classed as cell-based, human. The note with it: after 4 h, % of total added activity. The method, then:
Cell culture. All cell lines were grown in suitable culture medium at 37 °C in a humidified CO2 (5%) atmosphere. The human breast cancer cell lines T-47D, MDA-MB-231 and MCF-7 were grown in Dulbecco’s Modified Eagle Medium (DMEM), supplemented with 10% (v/v) fetal calf serum (FCS) and 1% (v/v) L-Glutamine. For a high expression of the NPY(Y1) receptor on T-47D cells, the medium for this cell line was further supplemented with 0.15% (w/v) β-estradiol. The BT-474 and PC-3 cell lines were grown in RPMI-1640 medium, also supplemented with 10% (v/v) fetal calf serum (FCS) and 1% (v/v) L-Glutamine.
Internalization studies. Cells (T-47D, MDA-MB-231, MCF-7, BT-474 and PC-3, 1.5 × 10^6 cells per well) were seeded into 6-well plates and incubated overnight at 37 °C in a humidified CO2 (5%) atmosphere. The next day, the medium was removed and the cells were washed twice with the respective medium without supplements (ice-cold, 1 mL) and incubated with 3.7–4.0 kBq (0.37–4.0 pmol) of the respective ^68Ga-radiolabeled ligand [^68Ga]22−[^68Ga]26, [^68Ga]27 or [^68Ga]28 (in 1.5 mL medium, containing 0.5% (w/v) BSA) for defined time-points of 1, 2, 3 or 4 h at 37 °C in a humidified CO2 (5%) atmosphere. A 1000-fold excess of the respective peptide (3 or 4) was used for blocking to determine the non-specific cell uptake. At each time point, the medium was removed and the cells were washed twice with the respective medium without supplements (ice-cold, 1 mL). Cells were treated twice with 1 mL glycine buffer (ice-cold, 50 mM glycine, 100 mM NaCl, pH 2.8) for 5 min at room temperature, followed by 2 mL NaOH solution (1 M) for 10 min at 37 °C. The supernatants were collected and the radioactivity measured in a gamma counter. The internalized and surface bound activity was expressed as percentage of measured to total added activity. Each data point was generated thrice in triplicates.

Series [3] deals with T-47D tumor-bearing mice. As to the kind of experiment: Ex vivo biodistribution in T-47D tumor-bearing mice. The note with it: mouse, in vivo. The method, then:
(§1) In vivo experiments. All animal experiments were performed in compliance with the German animal protection laws and protocols of the local committee (Regierungspräsidium Karlsruhe, approval number: 35-9185.81/G-206/15). 20, six week old female immunodeficient Fox Chase SCID (CB17/Icr-Prkdc^scid/IcrIcoCrl) mice with an average weight of 20 g were subcutaneously implanted with 17β-estradiol pellets (0.36 mg/60 days). 4 days later, the tumors were induced by subcutaneous inoculation of 5 × 10^6 T-47D cells into the left flank of the […]. After induction, the tumors were allowed to grow for 8–10 weeks and reached a diameter of about 0.5 cm. For imaging, the animals were anaesthetized with isoflurane and injected with 5.5–8.0 MBq of the respective radioligand ([^68Ga]24, [^68Ga]24a or [^68Ga]24b) into the lateral tail vein. Dynamic PET images were acquired over 90 min and CT images were obtained within further 30 min. After the end of the diagnostic scan, the animals were sacrificed, the organs were collected and measured in a gamma-counter.

Experiment in series [4]: as above
The conditions noted are these: female, Fox Chase SCID (CB17/Icr-Prkdc^scid/IcrIcoCrl), mouse, in vivo, iv, total radioactivity. On the procedure:
as §1

*1 amine or outer side, *2 acyl side, *3 side chain or, on linkers, in order; H or OH if unused. Where a SMILES comes first, the peptide text is derived from it. Bridges are numbered along the chain shown (N, C = ends). Roman numbers before positions name the chains, in order. [ ]: non-standard residue; d: D form. The star is where a group is joined. X1 = NC(=O)[C@H](CCCCNC(=O)CCC(C(=O)O)N1CCN(CC(=O)O)CCN(CC(=O)O)CC1)NC(=O)CCOCCOCCOCCOCCNC(=O)CN(CCCNC(=O)CCOCCOCCOCCOCCNC(=O)c1ccc(C=NOCC(=O)NCCOCCOCCOCCOCCC(=O)[*:2])cc1)CCCNC(=O)CCOCCOCCOCCOCCNC(=O)c1ccc(C=NOCC(=O)[*:1])cc1; DOTA = O=C(O)CN1CCN(CC(=O)O)CCN(CC(=O)*)CCN(CC(=O)O)CC1; Nle = CCCC[C@H](N)C(=O)O

For `CCCC[C@H](NC(=O)[C@H](CCCNC(=N)N)NC(=O)[C@H](Cc1c[nH]c2ccccc12)NC(=O)[C@H](CCCCNC(=O)CON=Cc1ccc(C(=O)NCCCN(CCCNC(=O)c2ccc(C=NOCC(=O)NCCOCCOCCOCCOCCC(=O)N[C@@H](CCC(N)=O)C(=O)N[C@@H](Cc3c[nH]c4ccccc34)C(=O)N[C@@H](C)C(=O)N[C@H](C(=O)NCC(=O)N[C@@H](Cc3c[nH]cn3)C(=O)N[C@@H](CC(C)C)C(=O)N[C@@H](CCSC)C(N)=O)C(C)C)cc2)CC(=O)NCCOCCOCCOCCOCCC(=O)N[C@@H](CCCCNC(=O)CCC(C(=O)O)N2CCN(CC(=O)O)CCN(CC(=O)O)CC2)C(N)=O)cc1)NC(=O)[C@@H]1CCCN1C(=O)[C@H](CC(N)=O)NC(=O)[C@@H](N)[C@@H](C)CC)C(=O)N[C@@H](CCCNC(=N)N)C(=O)N[C@@H](Cc1ccc(O)cc1)C(N)=O` (stereo partly drawn) [[^68Ga]22, metal not drawn], the pH-dependent lipophilicity (logD) (commonly the decadic logarithm of the distribution of all forms, ionised or not, between an organic phase and buffer at a given pH) in series [1] was -1.57 ± 0.111. This molecule came in with a specific cell uptake in series [2] of 47.8 ± 6.5%.
With `CCCC[C@H](NC(=O)[C@H](CCCNC(=N)N)NC(=O)[C@H](Cc1c[nH]c2ccccc12)NC(=O)[C@H](CCCCNC(=O)CON=Cc1ccc(C(=O)NCCOCCOCC(=O)NCCCN(CCCNC(=O)COCCOCCNC(=O)c2ccc(C=NOCC(=O)NCCOCCOCCOCCOCCC(=O)N[C@@H](CCC(N)=O)C(=O)N[C@@H](Cc3c[nH]c4ccccc34)C(=O)N[C@@H](C)C(=O)N[C@H](C(=O)NCC(=O)N[C@@H](Cc3c[nH]cn3)C(=O)N[C@@H](CC(C)C)C(=O)N[C@@H](CCSC)C(N)=O)C(C)C)cc2)CC(=O)NCCOCCOCCOCCOCCC(=O)N[C@@H](CCCCNC(=O)CCC(C(=O)O)N2CCN(CC(=O)O)CCN(CC(=O)O)CC2)C(N)=O)cc1)NC(=O)[C@@H]1CCCN1C(=O)[C@H](CC(N)=O)NC(=O)[C@@H](N)[C@@H](C)CC)C(=O)N[C@@H](CCCNC(=N)N)C(=O)N[C@@H](Cc1ccc(O)cc1)C(N)=O` (stereo partly drawn) [[^68Ga]23, metal not drawn], the pH-dependent lipophilicity (logD) in series [1] is -1.53 ± 0.109. In series [2], this molecule yielded a specific cell uptake of 45.8 ± 2.9%.
As for `CCCC[C@H](NC(=O)[C@H](CCCNC(=N)N)NC(=O)[C@H](Cc1c[nH]c2ccccc12)NC(=O)[C@H](CCCCNC(=O)CON=Cc1ccc(C(=O)NCCOCCOCCOCCOCCC(=O)NCCCN(CCCNC(=O)CCOCCOCCOCCOCCNC(=O)c2ccc(C=NOCC(=O)NCCOCCOCCOCCOCCC(=O)NCC(=O)N[C@@H](CC(C)C)C(=O)N[C@@H](Cc3c[nH]cn3)C(=O)N[C@H](C(=O)N[C@@H](CCSC)C(=O)N[C@@H](Cc3c[nH]c4ccccc34)C(=O)N[C@@H](CCC(N)=O)C(=O)N[C@@H](C)C(N)=O)C(C)C)cc2)CC(=O)NCCOCCOCCOCCOCCC(=O)N[C@@H](CCCCNC(=O)CCC(C(=O)O)N2CCN(CC(=O)O)CCN(CC(=O)O)CC2)C(N)=O)cc1)NC(=O)[C@@H]1CCCN1C(=O)[C@H](CC(N)=O)NC(=O)[C@@H](N)[C@@H](C)CC)C(=O)N[C@@H](CCCNC(=N)N)C(=O)N[C@@H](Cc1ccc(O)cc1)C(N)=O` (stereo partly drawn) [[^68Ga]24a, metal not drawn] (I: H-INPKWR[Nle]RY-NH2 / II: GLHVMWQA-NH2; linker I:4-II:N via X1), in series [3], the adrenal glands uptake was 0.74 ± 0.40 ID/g in %, the blood uptake is 0.39 ± 0.37 ID/g in %, the bone uptake is 0.13 ± 0.08 ID/g in % and the brain uptake is on record as 0.03 ± 0.02 ID/g in %. Also, in series [3], the heart uptake was 0.18 ± 0.14 ID/g in %, the kidneys uptake was 29.72 ± 10.33 ID/g in %, the large intestines uptake stood at 0.24 ± 0.19 ID/g in % and the liver uptake is recorded as 5.54 ± 0.31 ID/g in %. In addition, in series [3], the lung uptake is on record as 0.28 ± 0.04 ID/g in %, the muscle uptake is on record as 0.26 ± 0.40 ID/g in %, the pancreas uptake came to 0.15 ± 0.08 ID/g in % and the small intestines uptake worked out at 0.43 ± 0.37 ID/g in %. In series [3], the spleen uptake came to 0.49 ± 0.14 ID/g in %, the stomach uptake is 0.39 ± 0.41 ID/g in %, the tail uptake is 0.46 ± 0.41 ID/g in % and the tumor uptake came to 0.21 ± 0.15 ID/g in %. The tissue to tissue ratio at 130 min in series [4] (tumor-to-blood ratio (T / B)) was 0.5 ± 0.47. For the same molecule, in series [4] (tumor-to-muscle ratio (T / M)), the tissue to tissue ratio at 130 min came to 1.07 ± 1.14.
Regarding `CCCC[C@H](NC(=O)[C@H](CCCCNC(=O)CON=Cc1ccc(C(=O)NCCOCCOCCOCCOCCC(=O)NCCCN(CCCNC(=O)CCOCCOCCOCCOCCNC(=O)c2ccc(C=NOCC(=O)NCCOCCOCCOCCOCCC(=O)N[C@@H](CCC(N)=O)C(=O)N[C@@H](Cc3c[nH]c4ccccc34)C(=O)N[C@@H](C)C(=O)N[C@H](C(=O)NCC(=O)N[C@@H](Cc3c[nH]cn3)C(=O)N[C@@H](CC(C)C)C(=O)N[C@@H](CCSC)C(N)=O)C(C)C)cc2)CC(=O)NCCOCCOCCOCCOCCC(=O)N[C@@H](CCCCNC(=O)CCC(C(=O)O)N2CCN(CC(=O)O)CCN(CC(=O)O)CC2)C(N)=O)cc1)NC(=O)[C@H](CC(N)=O)NC(=O)[C@H](Cc1ccc(O)cc1)NC(=O)[C@@H]1CCCN1)C(=O)N[C@@H](CCCNC(=N)N)C(=O)N[C@@H](CCCNC(=N)N)C(=O)N[C@@H](Cc1c[nH]c2ccccc12)C(=O)N[C@H](C(N)=O)[C@@H](C)CC` (stereo partly drawn) [[^68Ga]24b, metal not drawn], in series [3], the adrenal glands uptake amounted to 2.91 ± 1.13 ID/g in %, the blood uptake is 2.02 ± 1.34 ID/g in %, the bone uptake came out at 0.43 ± 0.23 ID/g in % and the brain uptake was determined as 0.07 ± 0.04 ID/g in %. In addition, in series [3], the heart uptake came to 0.85 ± 0.52 ID/g in %, the kidneys uptake is 43.84 ± 25.05 ID/g in %, the large intestines uptake worked out at 1.71 ± 0.69 ID/g in % and the liver uptake worked out at 16.75 ± 0.85 ID/g in %. In series [3], the lung uptake was 0.88 ± 0.07 ID/g in %, the muscle uptake came to 0.48 ± 0.40 ID/g in %, the pancreas uptake is given as 8.30 ± 5.33 ID/g in % and the small intestines uptake turned out to be 1.53 ± 0.51 ID/g in %. In series [3], the spleen uptake turned out to be 2.12 ± 0.49 ID/g in %, the stomach uptake is reported as 1.35 ± 0.43 ID/g in %, the tail uptake is recorded as 1.64 ± 0.94 ID/g in % and the tumor uptake is recorded as 1.84 ± 0.32 ID/g in %. Moreover, the tissue to tissue ratio at 130 min in series [4] (tumor-to-blood ratio (T / B)) turned out to be 0.91 ± 0.24. The tissue to tissue ratio at 130 min in series [4] (tumor-to-muscle ratio (T / M)) was 3.83 ± 0.8.
In the case of `CSCC[C@H](NC(=O)[C@H](CC(C)C)NC(=O)[C@H](Cc1c[nH]cn1)NC(=O)CNC(=O)[C@@H](NC(=O)[C@H](C)NC(=O)[C@H](Cc1c[nH]c2ccccc12)NC(=O)[C@H](CCC(N)=O)NC(=O)CCOCCOCCOCCOCCNC(=O)CN1CCN(CC(=O)O)CCN(CC(=O)O)CCN(CC(=O)O)CC1)C(C)C)C(N)=O` [[^68Ga]27, metal not drawn, reference compound], the logD in series [1] was -1.86 ± 0.054.
For the molecule `CCCC[C@H](NC(=O)[C@H](CCCNC(=N)N)NC(=O)[C@H](Cc1c[nH]c2ccccc12)NC(=O)[C@H](CCCCNC(=O)CN1CCN(CC(=O)O)CCN(CC(=O)O)CCN(CC(=O)O)CC1)NC(=O)[C@@H]1CCCN1C(=O)[C@H](CC(N)=O)NC(=O)[C@@H](N)[C@@H](C)CC)C(=O)N[C@@H](CCCNC(=N)N)C(=O)N[C@@H](Cc1ccc(O)cc1)C(N)=O` [[^68Ga]28, metal not drawn, reference compound] (H-INPK(DOTA)WR[Nle]RY-NH2), the pH-dependent lipophilicity (logD) in series [1] was -1.98 ± 0.162.

These data come from PMC6161111, “Design, Synthesis, In Vitro, and Initial In Vivo Evaluation of Heterobivalent Peptidic Ligands Targeting Both NPY(Y1)- and GRP-Receptors—An Improvement for Breast Cancer Imaging?” (Pharmaceuticals, 2018).
